According to publication PMC9481538, “The interaction between LC8 and LCA5 reveals a novel oligomerization function of LC8 in the ciliary-centrosome system” (Scientific Reports, 2022):

Assays:
[1] = biological target: sLCA5-WT (LCA5 96-430 with N-terminal MBP and C-terminal 6xHis) (human (cDNA library from HEK293)) (UniProt Q86VQ0)
[2] = biological target: sLCA5-WT (LCA5 96-430 with N-terminal MBP and C-terminal 6xHis) (human (cDNA library from HEK293)) (UniProt Q86VQ0); assay: ITC; MBP-fused LCA5 construct in the cell, LC8 injected, 37 injections of 1 μl; 37 °C, PBS pH 7.4, 1 mM TCEP
[3] = biological target: sLCA5-ΔCQS (human (cDNA library from HEK293)) (UniProt Q86VQ0); assay: as above
[4] = biological target: sLCA5-ΔVQT (human (cDNA library from HEK293)) (UniProt Q86VQ0); assay: as above
[5] = biological target: FITC-labelled BMF (Bcl-2-modifying factor) peptide (…); assay: fluorescence polarisation; direct titration of 50 nM FITC-BMF peptide with LC8; 25 °C, PBS, 2 mM TCEP, 0.05% Brij
[6] = biological target: Dynein light chain LC8 (DYNLL2), 6xHis-tagged (UniProt Q96FJ2); assay: SEC; Superose 6 Increase 10/300, DPBS with 200 μM TCEP; LC8 or sLCA5-WT alone; masses estimated from a calibration curve
[7] = biological target: sLCA5-WT (LCA5 96-430 with N-terminal MBP and C-terminal 6xHis) (human (cDNA library from HEK293)) (UniProt Q86VQ0); assay: SEC; Superose 6 Increase 10/300, DPBS with 200 μM TCEP; 30 μM LCA5 construct with 150 μM LC8, injected immediately or after 60 min at 37 °C; fractions analysed by SDS-PAGE and densitometry
[8] = biological target: sLCA5-ΔCQS (human (cDNA library from HEK293)) (UniProt Q86VQ0); assay: as above
[9] = biological target: sLCA5-ΔVQT (human (cDNA library from HEK293)) (UniProt Q86VQ0); assay: as above

Sequence of sLCA5-ΔCQS (human (cDNA library from HEK293)) (Q86VQ0 other isoform, or with tags, fused parts or gaps mutant): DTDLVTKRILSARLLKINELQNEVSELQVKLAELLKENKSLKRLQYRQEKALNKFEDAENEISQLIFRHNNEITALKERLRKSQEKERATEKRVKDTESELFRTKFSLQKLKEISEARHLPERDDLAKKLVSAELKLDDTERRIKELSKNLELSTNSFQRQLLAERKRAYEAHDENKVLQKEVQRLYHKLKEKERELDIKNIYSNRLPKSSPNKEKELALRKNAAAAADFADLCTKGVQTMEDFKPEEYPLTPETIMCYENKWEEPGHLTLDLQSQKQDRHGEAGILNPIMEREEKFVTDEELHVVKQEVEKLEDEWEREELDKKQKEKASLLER
Sequence of sLCA5-ΔVQT (human (cDNA library from HEK293)) (Q86VQ0 other isoform, or with tags, fused parts or gaps mutant): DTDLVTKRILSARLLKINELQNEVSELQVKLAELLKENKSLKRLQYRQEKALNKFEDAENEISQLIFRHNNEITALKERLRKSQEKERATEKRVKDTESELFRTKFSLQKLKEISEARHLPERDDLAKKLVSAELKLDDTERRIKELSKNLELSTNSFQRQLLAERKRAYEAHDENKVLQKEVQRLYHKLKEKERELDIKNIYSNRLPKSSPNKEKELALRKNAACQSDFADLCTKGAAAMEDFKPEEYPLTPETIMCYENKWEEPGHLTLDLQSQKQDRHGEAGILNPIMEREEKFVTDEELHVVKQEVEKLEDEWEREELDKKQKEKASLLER
Sequence of Dynein light chain LC8 (DYNLL2), 6xHis-tagged (from UniProt Q96FJ2 1-89) (natural protein) (Q96FJ2 whole entry): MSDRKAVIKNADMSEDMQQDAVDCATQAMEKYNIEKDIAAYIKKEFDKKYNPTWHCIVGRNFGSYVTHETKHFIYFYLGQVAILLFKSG
Sequence of sLCA5-WT (LCA5 96-430 with N-terminal MBP and C-terminal 6xHis) (human (cDNA library from HEK293)) (Q86VQ0 96-430): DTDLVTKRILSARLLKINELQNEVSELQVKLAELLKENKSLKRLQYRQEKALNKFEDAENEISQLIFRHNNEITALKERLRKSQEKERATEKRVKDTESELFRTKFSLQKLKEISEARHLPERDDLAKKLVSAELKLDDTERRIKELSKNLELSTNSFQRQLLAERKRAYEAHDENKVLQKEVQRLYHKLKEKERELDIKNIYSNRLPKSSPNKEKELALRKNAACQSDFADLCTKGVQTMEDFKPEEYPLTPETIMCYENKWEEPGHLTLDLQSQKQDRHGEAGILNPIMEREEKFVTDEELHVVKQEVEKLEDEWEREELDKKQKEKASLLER

increase in the melting temperature of sLCA5-WT in complex with LC8 (CD thermal denaturation at 222 nm, 10-80 °C; 1.2 μM LCA5, 6 μM LC8) [1]: 5 °C
dH [2]: -11.8 kcal/mol
stoichiometry N [2]: 1 LCA5:LC8
dH [3]: -8.62 kcal/mol
stoichiometry N [3]: 2 LCA5:LC8
dH [4]: -12.5 kcal/mol
stoichiometry N [4]: 2 LCA5:LC8
LC8 concentration at 80% saturation of the BMF peptide [5]: 12 µM
stoichiometry N [6]: 2
molar ratio LCA5:LC8 in the LCA5 peak [7]: 1 LCA5:LC8
molar ratio LCA5:LC8 in the intermediate fraction [7]: 1 LCA5:LC8
molar ratio sLCA5:LC8 in the oligomeric (void) fraction [7]: 0.5 LCA5:LC8
molar ratio LCA5:LC8 in the LCA5 peak [8]: 2 LCA5:LC8
molar ratio sLCA5:LC8 in the oligomeric (void) fraction [8]: 1 LCA5:LC8
molar ratio LCA5:LC8 in the earlier eluted part of the LCA5 peak [9]: 2 LCA5:LC8
molar ratio LCA5:LC8 in the later part of the LCA5 peak [9]: 1 LCA5:LC8
Substance: Dynein light chain LC8 (DYNLL2), 6xHis-tagged (from UniProt Q96FJ2 1-89) (natural protein)
